Laboratory results from PMC11398535 (bioRxiv, 2024).

Molecular target: T1, peptide-8 (DEIVNKVL), derived from the ESCRT-III family member Vps2p
T1 peptide: {5(6)‑carboxyfluorescein}-DEIVNKVL-NH2
Assay: fluorescence polarisation

B1: Vps4p^L7C/A43C (MIT domain stabilised by a disulfide bond) (enzyme, S. cerevisiae, UniProt P52917 1-437, looked up)
chain: MSTGDFCTKGIELVQKAIDLDTATQYEEAYTAYYNGLDYLMLCLKYEKNPKSKDLIRAKFTEYLNRAEQLKKHLESEEANAAKKSPSAGSGSNGGNKKISQEEGEDNGGEDNKKLRGALSSAILSEKPNVKWEDVAGLEGAKEALKEAVILPVKFPHLFKGNRKPTSGILLYGPPGTGKSYLAKAVATEANSTFFSVSSSDLVSKWMGESEKLVKQLFAMARENKPSIIFIDEVDALTGTRGEGESEASRRIKTELLVQMNGVGNDSQGVLVLGATNIPWQLDSAIRRRFERRIYIPLPDLAARTTMFEINVGDTPCVLTKEDYRTLGAMTEGYSGSDIAVVVKDALMQPIRKIQSATHFKDVSTEDDETRKLTPCSPGDDGAIEMSWTDIEADELKEPDLTIKDFLKAIKSTRPTVNEDDLLKQEQFTRDFGQEGN
modifications: disulfide bond between C7 and C43 of the MIT domain
- fold tighter than Vps4p: 8 fold
